Data reported in US10941182 (Amgen, dated 2021).
Starred links: 1 amine or outer side, 2 acyl side, 3 side chain; linkers in the order of their positions; H or OH if unused. Non-standard residues stand in square brackets, D forms with d. Primed or numbered codes have the meaning given here. *: point of attachment. dBip = N[C@H](Cc1ccc(-c2ccccc2)cc1)C(=O)O; Oic = O=C(O)[C@@H]1C[C@@H]2CCCC[C@@H]2N1; Phe(4-Cl) = N[C@@H](Cc1ccc(Cl)cc1)C(=O)O; Phe(4-I) = N[C@@H](Cc1ccc(I)cc1)C(=O)O; γGlu = O=C(O)[C@H](CCC(=O)[*:2])N[*:1]; Tridecanoyl = CCCCCCCCCCCCC(=O)*; hArg = N=C(N)NCCCC[C@H](N)C(=O)O; Cha = N[C@@H](CC1CCCCC1)C(=O)O; NMeL = CN[C@@H](CC(C)C)C(=O)O; Nle = CCCC[C@H](N)C(=O)O; Pip′ = not defined here; AEEA = NCCOCCOCC(=O)O

Columns and labels:
[1] = target: T1, human APJ receptor (human, UniProt P35414 1-380); assay: cell-based or functional assay
T1 sequence (looked up): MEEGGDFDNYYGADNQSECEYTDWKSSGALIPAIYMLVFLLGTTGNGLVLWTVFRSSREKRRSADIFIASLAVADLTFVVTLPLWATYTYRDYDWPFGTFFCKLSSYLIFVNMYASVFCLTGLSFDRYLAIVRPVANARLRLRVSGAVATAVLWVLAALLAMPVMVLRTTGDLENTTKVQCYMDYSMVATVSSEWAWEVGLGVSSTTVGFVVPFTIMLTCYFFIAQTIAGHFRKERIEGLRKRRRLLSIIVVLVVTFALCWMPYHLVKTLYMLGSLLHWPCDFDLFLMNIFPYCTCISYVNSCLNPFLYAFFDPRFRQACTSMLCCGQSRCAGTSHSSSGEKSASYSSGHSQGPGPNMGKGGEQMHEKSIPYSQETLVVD

[2] = target: T2, rat APJ receptor (rat, UniProt Q9JHG3 1-377); assay: cell-based or functional assay
T2 sequence (looked up): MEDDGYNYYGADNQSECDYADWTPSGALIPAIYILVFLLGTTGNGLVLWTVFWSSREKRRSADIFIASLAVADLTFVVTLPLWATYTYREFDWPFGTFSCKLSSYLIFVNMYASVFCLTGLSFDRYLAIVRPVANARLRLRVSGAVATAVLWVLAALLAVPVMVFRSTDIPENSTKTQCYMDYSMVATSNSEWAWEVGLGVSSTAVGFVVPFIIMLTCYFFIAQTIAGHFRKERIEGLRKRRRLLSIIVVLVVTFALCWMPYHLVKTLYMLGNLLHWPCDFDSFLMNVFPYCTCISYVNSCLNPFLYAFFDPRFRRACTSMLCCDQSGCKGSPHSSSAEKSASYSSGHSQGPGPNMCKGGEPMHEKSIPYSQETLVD

B1: Apelin polypeptide SEQ ID NO: 348 (peptide)
peptide: Tridecanoyl-[γGlu][AEEA][AEEA]RQ[Nle]P[hArg][Cha]AAKG[Oic][Nle]P[Phe(4-Cl)]-OH
SMILES: CCCCCCCCCCCCC(=O)N[C@@H](CCC(=O)NCCOCCOCC(=O)NCCOCCOCC(=O)N[C@@H](CCCNC(=N)N)C(=O)N[C@@H](CCC(N)=O)C(=O)N[C@@H](CCCC)C(=O)N1CCC[C@H]1C(=O)N[C@@H](CCCCNC(=N)N)C(=O)N[C@@H](CC1CCCCC1)C(=O)N[C@@H](C)C(=O)N[C@@H](C)C(=O)N[C@@H](CCCCN)C(=O)NCC(=O)N1[C@H](C(=O)N[C@@H](CCCC)C(=O)N2CCC[C@H]2C(=O)N[C@@H](Cc2ccc(Cl)cc2)C(=O)O)C[C@@H]2CCCC[C@@H]21)C(=O)O
EC50 Human APJ Receptor (GTPγS assay) [1]: 4.92 nM
EC50 Rat APJ Receptor (GTPγS assay) [2]: 7.46 nM

B2: Apelin polypeptide SEQ ID NO: 343 (peptide)
peptide: Tridecanoyl-[γGlu][AEEA][AEEA]RQ[Nle]P[hArg][Cha]SAKG[Oic][Nle]P[Phe(4-Cl)]-OH
SMILES: CCCCCCCCCCCCC(=O)N[C@@H](CCC(=O)NCCOCCOCC(=O)NCCOCCOCC(=O)N[C@@H](CCCNC(=N)N)C(=O)N[C@@H](CCC(N)=O)C(=O)N[C@@H](CCCC)C(=O)N1CCC[C@H]1C(=O)N[C@@H](CCCCNC(=N)N)C(=O)N[C@@H](CC1CCCCC1)C(=O)N[C@@H](CO)C(=O)N[C@@H](C)C(=O)N[C@@H](CCCCN)C(=O)NCC(=O)N1[C@H](C(=O)N[C@@H](CCCC)C(=O)N2CCC[C@H]2C(=O)N[C@@H](Cc2ccc(Cl)cc2)C(=O)O)C[C@@H]2CCCC[C@@H]21)C(=O)O
EC50 Human APJ Receptor (GTPγS assay) [1]: 1.4 nM
EC50 Rat APJ Receptor (GTPγS assay) [2]: 1.24 nM

Tridecanoyl-[γGlu][AEEA][AEEA]RQ[Nle]P[hArg][Cha]SAKG[Pip′][Nle]P[Phe(4-Cl)]-OH [Apelin polypeptide SEQ ID NO: 564]
EC50 Human APJ Receptor (GTPγS assay) [1]: 0.331 nM
EC50 Rat APJ Receptor (GTPγS assay) [2]: 1.49 nM

B3: Apelin polypeptide SEQ ID NO: 339 (peptide)
peptide: Tridecanoyl-[γGlu][AEEA][AEEA]RQ[Nle]P[hArg][Cha]SHKG[Oic][Nle]P[Phe(4-Cl)]-OH
SMILES: CCCCCCCCCCCCC(=O)N[C@@H](CCC(=O)NCCOCCOCC(=O)NCCOCCOCC(=O)N[C@@H](CCCNC(=N)N)C(=O)N[C@@H](CCC(N)=O)C(=O)N[C@@H](CCCC)C(=O)N1CCC[C@H]1C(=O)N[C@@H](CCCCNC(=N)N)C(=O)N[C@@H](CC1CCCCC1)C(=O)N[C@@H](CO)C(=O)N[C@@H](Cc1c[nH]cn1)C(=O)N[C@@H](CCCCN)C(=O)NCC(=O)N1[C@H](C(=O)N[C@@H](CCCC)C(=O)N2CCC[C@H]2C(=O)N[C@@H](Cc2ccc(Cl)cc2)C(=O)O)C[C@@H]2CCCC[C@@H]21)C(=O)O
EC50 Human APJ Receptor (GTPγS assay) [1]: 2.55 nM
EC50 Rat APJ Receptor (GTPγS assay) [2]: 4.53 nM

B4: Apelin polypeptide SEQ ID NO: 351 (peptide)
peptide: Tridecanoyl-[γGlu][AEEA][AEEA]RQRP[hArg][Cha]AA[Nle]G[Oic][Nle]P[Phe(4-Cl)]-OH
SMILES: CCCCCCCCCCCCC(=O)N[C@@H](CCC(=O)NCCOCCOCC(=O)NCCOCCOCC(=O)N[C@@H](CCCNC(=N)N)C(=O)N[C@@H](CCC(N)=O)C(=O)N[C@@H](CCCNC(=N)N)C(=O)N1CCC[C@H]1C(=O)N[C@@H](CCCCNC(=N)N)C(=O)N[C@@H](CC1CCCCC1)C(=O)N[C@@H](C)C(=O)N[C@@H](C)C(=O)N[C@@H](CCCC)C(=O)NCC(=O)N1[C@H](C(=O)N[C@@H](CCCC)C(=O)N2CCC[C@H]2C(=O)N[C@@H](Cc2ccc(Cl)cc2)C(=O)O)C[C@@H]2CCCC[C@@H]21)C(=O)O
EC50 Human APJ Receptor (GTPγS assay) [1]: 1.59 nM
EC50 Rat APJ Receptor (GTPγS assay) [2]: 1.8 nM

B5: Apelin polypeptide SEQ ID NO: 340 (peptide)
peptide: Tridecanoyl-[γGlu][AEEA][AEEA]RQRP[hArg][Cha]SA[Nle]G[Oic][Nle]P[Phe(4-Cl)]-OH
SMILES: CCCCCCCCCCCCC(=O)N[C@@H](CCC(=O)NCCOCCOCC(=O)NCCOCCOCC(=O)N[C@@H](CCCNC(=N)N)C(=O)N[C@@H](CCC(N)=O)C(=O)N[C@@H](CCCNC(=N)N)C(=O)N1CCC[C@H]1C(=O)N[C@@H](CCCCNC(=N)N)C(=O)N[C@@H](CC1CCCCC1)C(=O)N[C@@H](CO)C(=O)N[C@@H](C)C(=O)N[C@@H](CCCC)C(=O)NCC(=O)N1[C@H](C(=O)N[C@@H](CCCC)C(=O)N2CCC[C@H]2C(=O)N[C@@H](Cc2ccc(Cl)cc2)C(=O)O)C[C@@H]2CCCC[C@@H]21)C(=O)O
EC50 Human APJ Receptor (GTPγS assay) [1]: 0.345 nM
EC50 Rat APJ Receptor (GTPγS assay) [2]: 0.676 nM

B6: Apelin polypeptide SEQ ID NO: 336 (peptide)
peptide: Tridecanoyl-[γGlu][AEEA][AEEA]RQRP[hArg][Cha]SH[Nle]G[Oic][Nle]P[Phe(4-Cl)]-OH
SMILES: CCCCCCCCCCCCC(=O)N[C@@H](CCC(=O)NCCOCCOCC(=O)NCCOCCOCC(=O)N[C@@H](CCCNC(=N)N)C(=O)N[C@@H](CCC(N)=O)C(=O)N[C@@H](CCCNC(=N)N)C(=O)N1CCC[C@H]1C(=O)N[C@@H](CCCCNC(=N)N)C(=O)N[C@@H](CC1CCCCC1)C(=O)N[C@@H](CO)C(=O)N[C@@H](Cc1c[nH]cn1)C(=O)N[C@@H](CCCC)C(=O)NCC(=O)N1[C@H](C(=O)N[C@@H](CCCC)C(=O)N2CCC[C@H]2C(=O)N[C@@H](Cc2ccc(Cl)cc2)C(=O)O)C[C@@H]2CCCC[C@@H]21)C(=O)O
EC50 Human APJ Receptor (GTPγS assay) [1]: 0.714 nM
EC50 Rat APJ Receptor (GTPγS assay) [2]: 0.986 nM

Tridecanoyl-[γGlu][AEEA][AEEA][dR]QRP[hArg][NMeL]SHKG[Pip′][Phe(4-I)]P[dBip]-OH [Apelin polypeptide SEQ ID NO: 565]
EC50 Human APJ Receptor (GTPγS assay) [1]: 1.02 nM
EC50 Rat APJ Receptor (GTPγS assay) [2]: 2.82 nM

B7: Apelin polypeptide SEQ ID NO: 345 (peptide)
peptide: Tridecanoyl-[γGlu][AEEA][AEEA]RQRP[Nle][Cha]AAKG[Oic][Nle]P[Phe(4-Cl)]-OH
SMILES: CCCCCCCCCCCCC(=O)N[C@@H](CCC(=O)NCCOCCOCC(=O)NCCOCCOCC(=O)N[C@@H](CCCNC(=N)N)C(=O)N[C@@H](CCC(N)=O)C(=O)N[C@@H](CCCNC(=N)N)C(=O)N1CCC[C@H]1C(=O)N[C@@H](CCCC)C(=O)N[C@@H](CC1CCCCC1)C(=O)N[C@@H](C)C(=O)N[C@@H](C)C(=O)N[C@@H](CCCCN)C(=O)NCC(=O)N1[C@H](C(=O)N[C@@H](CCCC)C(=O)N2CCC[C@H]2C(=O)N[C@@H](Cc2ccc(Cl)cc2)C(=O)O)C[C@@H]2CCCC[C@@H]21)C(=O)O
EC50 Human APJ Receptor (GTPγS assay) [1]: 4.51 nM
EC50 Rat APJ Receptor (GTPγS assay) [2]: 5.79 nM

B8: Apelin polypeptide SEQ ID NO: 344 (peptide)
peptide: Tridecanoyl-[γGlu][AEEA][AEEA]RQRP[Nle][Cha]AHKG[Oic][Nle]P[Phe(4-Cl)]-OH
SMILES: CCCCCCCCCCCCC(=O)N[C@@H](CCC(=O)NCCOCCOCC(=O)NCCOCCOCC(=O)N[C@@H](CCCNC(=N)N)C(=O)N[C@@H](CCC(N)=O)C(=O)N[C@@H](CCCNC(=N)N)C(=O)N1CCC[C@H]1C(=O)N[C@@H](CCCC)C(=O)N[C@@H](CC1CCCCC1)C(=O)N[C@@H](C)C(=O)N[C@@H](Cc1c[nH]cn1)C(=O)N[C@@H](CCCCN)C(=O)NCC(=O)N1[C@H](C(=O)N[C@@H](CCCC)C(=O)N2CCC[C@H]2C(=O)N[C@@H](Cc2ccc(Cl)cc2)C(=O)O)C[C@@H]2CCCC[C@@H]21)C(=O)O
EC50 Human APJ Receptor (GTPγS assay) [1]: 3.46 nM
EC50 Rat APJ Receptor (GTPγS assay) [2]: 5.58 nM

B9: Apelin polypeptide SEQ ID NO: 350 (peptide)
peptide: Tridecanoyl-[γGlu][AEEA][AEEA]RQRP[Nle][Cha]SAKG[Oic][Nle]P[Phe(4-Cl)]-OH
SMILES: CCCCCCCCCCCCC(=O)N[C@@H](CCC(=O)NCCOCCOCC(=O)NCCOCCOCC(=O)N[C@@H](CCCNC(=N)N)C(=O)N[C@@H](CCC(N)=O)C(=O)N[C@@H](CCCNC(=N)N)C(=O)N1CCC[C@H]1C(=O)N[C@@H](CCCC)C(=O)N[C@@H](CC1CCCCC1)C(=O)N[C@@H](CO)C(=O)N[C@@H](C)C(=O)N[C@@H](CCCCN)C(=O)NCC(=O)N1[C@H](C(=O)N[C@@H](CCCC)C(=O)N2CCC[C@H]2C(=O)N[C@@H](Cc2ccc(Cl)cc2)C(=O)O)C[C@@H]2CCCC[C@@H]21)C(=O)O
EC50 Human APJ Receptor (GTPγS assay) [1]: 0.285 nM
EC50 Rat APJ Receptor (GTPγS assay) [2]: 0.624 nM

B10: Apelin polypeptide SEQ ID NO: 335 (peptide)
peptide: Tridecanoyl-[γGlu][AEEA][AEEA]RQRP[Nle][Cha]SHKG[Oic][Nle]P[Phe(4-Cl)]-OH
SMILES: CCCCCCCCCCCCC(=O)N[C@@H](CCC(=O)NCCOCCOCC(=O)NCCOCCOCC(=O)N[C@@H](CCCNC(=N)N)C(=O)N[C@@H](CCC(N)=O)C(=O)N[C@@H](CCCNC(=N)N)C(=O)N1CCC[C@H]1C(=O)N[C@@H](CCCC)C(=O)N[C@@H](CC1CCCCC1)C(=O)N[C@@H](CO)C(=O)N[C@@H](Cc1c[nH]cn1)C(=O)N[C@@H](CCCCN)C(=O)NCC(=O)N1[C@H](C(=O)N[C@@H](CCCC)C(=O)N2CCC[C@H]2C(=O)N[C@@H](Cc2ccc(Cl)cc2)C(=O)O)C[C@@H]2CCCC[C@@H]21)C(=O)O
EC50 Human APJ Receptor (GTPγS assay) [1]: 0.315 nM
EC50 Rat APJ Receptor (GTPγS assay) [2]: 0.964 nM
